This note sets out measurements from patent US20260226161A1 (EXELIXIS, published 2026).

Residue numbers refer to the chain shown, from its start.

Test [1] addresses T1, cynomolgus NKG2A/CD94 (soluble antigen of the equilibrium assay) (cynomolgus, UniProt Q68VD2 94-233; Q68VD4 32-179, Biotinylated in the Octet assays of Example 2; state in the SPR equilibrium assay not seen.).
T1 construct: also called Cyno NKG2A/CD94; copies: 1 + 1
The test is described as follows: SPR equilibrium response, Langmuir isotherm; antibody on chip, soluble antigen. The method, then: In addition, a method using an equilibrium approach was performed. Kd determinations for cynomolgus NKG2A/CD94 were performed by measuring the signal response at equilibrium. […] The equilibrium response signals and corresponding antigen concentrations were then input into a Langmuir binding isotherm model, and the Kd was determined through nonlinear regression. Averages and standard deviations were calculated from 24 replicate chip locations for each molecule.

Test [2] concerns the target T2, PD-L1 expressed on cells (UniProt Q9NZQ7 19-290, limits assumed). Description: cell-based or functional assay.
The target of test [3] is T3, NKG2A expressed on KHYG-1 cells (endogenous) (human, UniProt P26715 1-233; Q13241 1-179). The test is described as follows: cell-based or functional assay.
For test [4], the target named is T3, NKG2A expressed on KHYG-1 cells …. Description: flow cytometry competition; inhibition of HLA-E tetramer binding to KHYG-1 cells. The method, then: 15 μL per well of binder dilution at 2× concentration was plated in a 96-well plate (Costar 3897). 15 μL per well of cell suspension at 5×10⁶ cells per mL was added. Plates were placed at 4° C. for 30 minutes. Following the incubation, 5 μL per well of Fc block (BD Pharmingen Cat #564220) was added at a final concentration of 500 ng per well. Plates were placed at 4° C. for 10 minutes. […] Plates were placed at 4° C. for 1 hour. Following the incubation, 100 μL per well of PBS was added and plate was centrifuged at 400×g for 7 minutes. Supernatant was removed by flicking the plate. Cells were resuspended in 50 μL per well of PBS and analyzed by flow cytometry (Intellicyt).

The target in test [5] is T4, CD94 (in the NKG2A/CD94 heterodimeric ectodomain complex) (UniProt Q13241 32-179).
T4 construct: extracellular domain; Tested only as part of the complex; also called CD94 protein
T4 sequence (looked up): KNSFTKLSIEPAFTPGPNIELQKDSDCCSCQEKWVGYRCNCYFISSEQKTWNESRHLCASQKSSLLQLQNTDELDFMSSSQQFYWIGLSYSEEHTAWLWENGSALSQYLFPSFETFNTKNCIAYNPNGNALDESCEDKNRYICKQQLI
Description: HDX-MS on the NKG2A/CD94 ectodomain complex. The procedure: Two different Quench conditions were used for digestion to improve the coverage. Both Data sets 1 and 2 were collected for 3 different timepoints (2, 10, and 60 mins) in triplicate. D₂O Buffer used was 20 mM Phos, 150 mM NaCl, pH 7.4. The relative fractional uptake greater than 5% was considered significant in the analysis.
Leap HDX auto sampler and Waters Cyclic IMS MS were the instruments used.
Quenching: The exchange reaction was quenched by a shift to acidic pH and a temperature drop (two proprietary conditions were used-potential variation in buffer formulation included the use of denaturants or reducing agents).

The next test has as its target Cyno PD-L1 (cyno, UniProt G7PSE7 19-238). Description: SPR (Carterra), antibody on chip, soluble antigen.
Test [6] concerns the target T5, Human PD-L1 with His tag (AcroBiosystems) (human, UniProt Q9NZQ7 19-238).
T5 construct: Bought protein; also called hPD-L1; not shown: His tag
The test is described as follows: SPR (Carterra), antibody on chip, soluble antigen.

Test [7] deals with T6, Human NKG2A & CD94 with mouse IgG2a Fc tag (AcroBiosystems) (human, UniProt P26715 94-233; Q13241 32-179, limits assumed).
T6 construct: Bought soluble antigen of the Carterra assay; also called hNKG2A; not shown: mouse IgG2a Fc tag
Description: SPR (Carterra), antibody on chip, soluble antigen.

Test [8] has as its target T3, NKG2A expressed on KHYG-1 cells …. Description: flow cytometry on KHYG-1 cells expressing endogenous NKG2A. The method, then:
(§1) Cells were collected by centrifugation at 400×g for 7 minutes and primary antibody was removed. 50 μL per well of AF488 goat anti human IgG Fab (Jackson Immuno Research 109-547-003) at 1:100 dilution was added. Plates were placed at 4° C. for 30 minutes.
(§2) Cells were collected by centrifugation at 400×g for 7 minutes and secondary antibody was removed. Cells were resuspended in 50 μL per well of PBS and analyzed by flow cytometry. Binding curves were calculated using the mean fluorescence intensity (MFI) of the FITC fluorescence signal on the cells. Bispecific antibody binding was evaluated in KHYG-1 cells expressing endogenous NKG2A and in MC/CAR cells expressing PD-L1. Cells were harvested and assayed for binding as described above.
(In general: A flow cytometer gives signals particle by particle.)

Test [9] addresses T2, PD-L1 expressed on cells. Description: cell-based or functional assay. The source holds these as a separate data set.
Test [10] has as its target T2, PD-L1 expressed on cells. The test is described as follows: flow cytometry on MC/CAR cells expressing PD-L1. The procedure:
as §1, §2

Test [11] addresses T7, biotinylated cyno NKG2A/CD94 heterodimer (extracellular domains) (cynomolgus, UniProt Q9MZJ3 94-233; Q9MZK9 32-179, biotinylated).
T7 construct: also called Cynomolgus NKG2A protein; not shown: fusion partner/tags ('similar approach' to the human proteins); fusion partner ('similar approach')
Description: selection summary of Examples 2-5 (Octet binding). On the technique in general: In BLI a coated tip is dipped into the sample, and binding shifts an interference pattern.

The target in test [12] is T8, biotinylated human NKG2C/CD94 heterodimer (extracellular domains, Fc fusions) (human, UniProt P26717 94-231; Q13241 32-179, biotinylated).
T8 construct: not shown: N-terminal Fc (hole)
The test is described as follows: selection summary of Examples 2-5 (Octet binding).

The target in test [13] is T3, NKG2A expressed on KHYG-1 cells …. Description: flow cytometry on KHYG-1 cells expressing endogenous NKG2A. The method, then:
Antibodies that were selected for binding to NKG2A, for example, such as those described in Examples 1 and 2, were evaluated for binding to cells that express NKG2A.
Cells were harvested at 70-90% confluence on the day of the assay. Cells were collected by centrifugation at 200×g for 5 minutes and media was removed. Cells were resuspended at 2×10⁶ cells per mL in cold PBS. […] 50 μL per well of the antibody dilution was plated in a 96 well V-bottom plate (Costar 3897). 50 μL per well of cell suspension was added. Plates were placed at 4° C. for 45-60 minutes.
This is another data set of the same source.

For test [14], the target named is T7, biotinylated cyno NKG2A/CD94 …. The test is described as follows: BLI (Octet), bivalent. The procedure:
(§3) A total of 58 binders formatted as IgG antibodies from phage display as described in Example 1 were further tested for binding.
(§4) The antibodies were evaluated for binding to (1) human NKG2A, (2) human NKG2C, and (3) cyno NKG2A. Bivalent interaction of binders to biotinylated human NKG2A (see Example 1), biotinylated human NKG2C/CD94 heterodimer, or biotinylated cyno NKG2A/CD94 heterodimer immobilized on a streptavidin biosensor was monitored using Octet (Pall ForteBio) instrument. For these assays, human NKG2C/CD94 and cyno NKG2A/CD94 were prepared using the procedure as described in Example 1. Similarly, the extracellular domain of human NKG2C was expressed and purified from HEK293 cells as heterodimer with CD94 as Fc fusions. The extracellular domain of NKG2C used for selection campaigns encompassed amino acid sequence Ile94-Leu231 (Accession No. P26717-1; SEQ ID NO: 75). The gene encoding CD94 (Accession No. Q13241-1, SEQ ID NO:76), Lys33-Ile159 was synthesized from IDT and cloned into mammalian expression vector as an N-terminal Fc (hole) fusion. Plasmids encoding NKG2C-Fc fusion and CD94-Fc fusion were co-transfected into HEK293T cells using standard procedures. NKG2C/CD94 heterodimer was purified from cell supernatant using Protein A resins. Similar approach was used to obtain Cynomolgus NKG2A protein. Specifically, extracellular domain of Cynomolgus NKG2A contained amino acid Pro 94-Leu 233. […] Extracellular domain of Cynomolgus CD94 contained amino acid residues Lys 33-Ile 179 (Accession No. Q68VD4-1; SEQ ID NO: 78).

Test [15] deals with T8, biotinylated human NKG2C/CD94 …. The test is described as follows: BLI (Octet), bivalent. The procedure: as §3, §4

T5 sequence (Q9NZQ7 19-238 limits assumed): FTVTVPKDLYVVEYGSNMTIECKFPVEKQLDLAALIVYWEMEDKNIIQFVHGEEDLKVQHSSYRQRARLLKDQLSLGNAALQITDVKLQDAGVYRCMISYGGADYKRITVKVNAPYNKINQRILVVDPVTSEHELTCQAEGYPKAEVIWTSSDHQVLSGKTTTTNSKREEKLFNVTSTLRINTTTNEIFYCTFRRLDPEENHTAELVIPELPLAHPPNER
T2 sequence (Q9NZQ7 19-290 limits assumed): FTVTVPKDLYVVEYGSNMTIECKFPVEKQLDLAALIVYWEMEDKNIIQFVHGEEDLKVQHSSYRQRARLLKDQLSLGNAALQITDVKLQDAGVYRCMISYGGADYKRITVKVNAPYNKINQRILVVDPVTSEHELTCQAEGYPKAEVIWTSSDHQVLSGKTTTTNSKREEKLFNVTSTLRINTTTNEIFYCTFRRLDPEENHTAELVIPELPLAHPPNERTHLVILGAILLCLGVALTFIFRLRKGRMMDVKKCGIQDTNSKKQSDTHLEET
Chain of Cyno PD-L1 (G7PSE7 entry or part of it limits assumed): as the sequence (Q9NZQ7 19-238 limits assumed) above, with A33T, A34S, S62N, R68Q, Q82R, F173L, T185A, T192I, H215L counted along it
T6 sequence (P26715 94-233 limits assumed, one chain of several): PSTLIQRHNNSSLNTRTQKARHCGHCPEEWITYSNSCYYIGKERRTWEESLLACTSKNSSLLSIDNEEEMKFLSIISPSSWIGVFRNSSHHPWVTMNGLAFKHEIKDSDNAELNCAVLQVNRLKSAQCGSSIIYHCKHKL
T7 sequence (Q9MZJ3 other isoform, or with tags, fused parts or gaps, chain 1 of 2): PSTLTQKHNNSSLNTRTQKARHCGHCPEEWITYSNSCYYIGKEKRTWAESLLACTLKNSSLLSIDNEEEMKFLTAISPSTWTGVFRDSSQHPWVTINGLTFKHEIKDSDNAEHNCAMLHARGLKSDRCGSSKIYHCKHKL
T7 sequence (Q9MZK9 32-179, chain 2 of 2): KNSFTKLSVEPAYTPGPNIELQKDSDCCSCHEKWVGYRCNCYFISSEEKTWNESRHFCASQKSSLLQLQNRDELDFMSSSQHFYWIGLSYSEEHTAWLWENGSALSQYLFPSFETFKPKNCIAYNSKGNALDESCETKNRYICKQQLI
T1 sequence (NKG2A, as listed by the source limits assumed, chain 1 of 2): as the sequence (Q9MZJ3 other isoform, or with tags, fused parts or gaps, chain 1 of 2) above
T1 sequence (CD94, as listed by the source limits assumed, chain 2 of 2): as the sequence (Q9MZK9 32-179, chain 2 of 2) above

B1: P12 × A11 (1 × 1 format) (bispecific antibody)
heavy 1: DIQMTQSPSSLSASVGDRVTITCRASQSVSSAVAWYQQKPGKAPKLLIYSASSLYSGVPSRFSGSRSGTDFTLTISSLQPEDFATYYCQQFMLEPITFGQGTKVEIKGQPREPQVCTLPPSRDELTKNQVSLTCLVRGFYPSDIAVEWESNGQPENNYKTTPPVLDSDGSFFLYSKLTVDKSRWQQGNVFSCSVMHEALHNHYTQKSLSLSPGKDKTHTCPPCPAPEAAGGPSVFLFPPKPKDTLMISRTPEVTCVVVDVSHEDPEVKFNWYVDGVEVHNAKTKPREEQYNSTYRVVSVLTVLHQDWLNGKEYKCKVSNKALKAPIEKTISKAKGQPREPQVYTLPPSREEMTKNQVSLSCAVKGFYPSDIAVEWESNGQPENNYKTTPPVLDSDGSFFLVSKLTVDKSRWQQGNVFSCSVMHEALHNHYTQKSLSLSPGK
light 1: EVQLVESGGGLVQPGGSLRLSCAASGFTFSSYYIHWVRQAPGKGLEWVATINSRGGFTLYADSVKGRFTISADTSKNTAYLQMNSLRAEDTAVYYCARGYTLTPVLDYWGQGTLVTVSSAQPREPQVYTLPPCRDWLTKNQVSLTCLVKGFYPSDIAVEWESNGQPENNYKTTPPVLDSDGSFFLYSKLTVDKSRWQQGNVFSCSVMHEALHNHYTQKSLSLSPGK
heavy 2: not shown
light 2: EVQLVESGGGLVQPGGSLRLSCAASGFTFSWYYIHWVRQAPGKGLEWVAVIDPISSYTYYADSVKGRFTISADTSKNTAYLQMNSLRAEDTAVYYCARGFDRAMDYWGQGTLVTVSSASTKGPSVFPLAPSSKSTSGGTAALGCLVKDYFPEPVTVSWNSGALTSGVHTFPAVLQSSGLYSLSSVVTVPSSSLGTQTYICNVNHKPSNTKVDKKVEPKSC
notes: One PD-L1 site, one NKG2A site; also called P12×A11, sFc; P12×A11 (sFc)
The term Kd denotes the concentration at which binding is half-saturated. A higher Kd goes with a looser complex. In general, EC50 refers to the concentration that produces a half-maximal response. A word on the koff: it is the rate constant with which the complex falls apart. For orientation: kon means the rate constant with which the complex forms. Lower therefore signals slow association. As for B1, the dissociation constant (Kd) in [1] came out at 49 nM; with Cyno PD-L1, 0.11 nM; in [6], 0.17 nM; in test [7] it was 0.38 nM. Besides, the “EC50 (read off the curve) of doublet formation between NKG2A+ KHYG-1 and PD-L1+ LCL721.221-PD-L1 cells” value (in the test with PD-L1 expressed on cells [2]; in test [3]) was approximately 0.2 nM each time. In addition, the results for the EC50 (in [4]; in [8]; with PD-L1 expressed on cells [10]) were 66 nM, 2.8 nM and 2.17 nM, respectively. Moreover, the binding result in [5] was “no binding”. In addition, the koff with Cyno PD-L1 is 6e-05 s⁻¹; in test [6], 8e-05 s⁻¹; in test [7], 9e-05 s⁻¹. For the same molecule, the results for the kon (with Cyno PD-L1; in test [6]; in [7]) were 540000 M⁻¹ s⁻¹, 470000 M⁻¹ s⁻¹ and 240000 M⁻¹ s⁻¹, respectively. In the test with PD-L1 expressed on cells [9], the “IC50 of inhibiting PD-1/PD-L1 interaction in PD-L1+MDA-MB-231 cells (PD-1/PD-L1 Signaling Bioassay, chemiluminescent signal)” value stood at 0.557 nM.

B2: Antibody Clone A42 (antibody, human IgG1, kappa, V domains shown)
VH: EVQLVESGGGLVQPGGSLRLSCAASGFTFSWYYIHWVRQAPGKGLEWVAVIDPISSYTYYADSVKGRFTISADTSKNTAYLQMNSLRAEDTAVYYCARGFDRAMDYWGQGTLVTVSS
VL: DIQMTQSPSSLSASVGDRVTITCRASQSVSSAVAWYQQKPGKAPKLLIYSASSLYSGVPSRFSGSRSGTDFTLTISSLQPEDFATYYCQQYYSSPYTFGQGTKVEIKR
In the case of B2, the binding result in test [11] was “binds”; in [12], “no binding”. For the same molecule, the EC50 in test [13] worked out at 26.7 nM.

B3: Antibody Clone A11 (antibody, human IgG1, kappa, V domains shown)
VH: B2 VH
VL: B2 VL with Q27K, V33L, S50V, A51G, L54R
B3: it took 4.35 nM to reach a half-maximal effect in test [13] (EC50). The binding result in test [14] and in test [15] was “no binding” each time.
